According to PMC11672684 (Cell Reports, 2024):

Assays:
H5 HA = H5 HA (Influenza A virus H5, assay strain not …, UniProt A5A5L7); test: ELISA + BLI; settings: both partners purified
H7 A/Anhui/1/2013 HA = H7 A/Anhui/1/2013 HA (Influenza A virus A/Anhui/1/2013 (H7N9), UniProt A0A024E3P0); test: BLI; […], dissociation 5 min; 1% BSA in PBS; 30°C; […]; settings: both partners purified

B1: 43_S0008 (antibody, V domains shown)
VH: QVQLVQSGAEVKKPGSSVKVSCKASGGTFRTFGISWVRQAPGQGLEWMGWIIPIIGTPNYAQKFQGRVIITADESSNTAYMELNSLKSEDTAVYYCAKEGRALLRYFDWLPLDAFDIWGQGTMVTVSS
VL: DIVLTQTPLSLPVSLGDQASISCRSSQSLVHSDGNTYLHWYLQKPGQSPKLLIYKVSNRFSGVPDRFSGSGSGTDFTLKISRVEAEDLGVYFCSQSTHVPPLTFGAGTKLELK
notes: also called mAb 43_S0008; IGHV1-69 + IGHD3-9 mAb 43_S0008; source: Expi293 cells, purified (protein A)
B1: binds (H5 HA); binds (H7 A/Anhui/1/2013 HA).
